The nature of data set [1]: High-pressure REES measurements. The format is physicochemical. The following applies: buffered solution, any pressure. From the text: The CSM value is rather larger than reported for the denaturation study above (FIGS. 3A and 3B) and this is due to a different spectral window used to calculate the CSM for the pressure studies. This was necessary due to the optical setup of the pressure cell. […] Fitting the REES data to Eq 4 gives the pressure dependence of A, shown in FIG. 4D as the change in the fraction of A across the pressure range. […] The pressure dependence data can be adequately fit to a simple, phenomenological model that implies a single transition between two states with changing hydrostatic pressure as used previously:
Where Rp=83.13 cm3 mol^−1 bar K^−1 when the pressure, p, is measured in bar, K0 is the equilibrium constant for the change in the relative population of the ith conformational state represented by the magnitude of A from Eq 4, extrapolated to 0 bar and ΔVA is the apparent difference in the volume associated with this equilibrium transition.
The difference in sign is simply attributable to relative change in direction of the specific to signal. What is important is that the magnitude of ΔV is much larger for the REES effect compared to W6 emission. Indeed, this magnitude of pressure dependence is more consistent with global metrics of NEMO conformational change previously measured using the pressure dependence of 8-anilino naphthalene sulfonate (ANS) emission. The REES signal may therefore be reflective of the broader equilibrium of NEMO conformational states at sites distal to W6. […] The key finding from the pressure data in the present context is that the REES effect itself is pressure-dependent with the magnitude of A increasing with pressure.
An ISS high-pressure cell (ISS, Champaign, UL, USA), fitted with a custom fiber optic mounting to the fluorimeter and connected to a circulating water bath for temperature regulation was used to record all high-pressure measurements.
Where fi is the measured fluorescence intensity and λem is the emission wavelength. The importance of using a consistent wavelength range when reporting CSM data is stressed, as the magnitude will be dependent on the wavelength range chosen.

In another data set the target is T1, NEMO (Homo sapiens, UniProt Q9Y6K9).
T1 construct: Full length human NEMO was expressed and purified essentially as described previously [23]; made in house
T1 sequence (Q9Y6K9 whole entry): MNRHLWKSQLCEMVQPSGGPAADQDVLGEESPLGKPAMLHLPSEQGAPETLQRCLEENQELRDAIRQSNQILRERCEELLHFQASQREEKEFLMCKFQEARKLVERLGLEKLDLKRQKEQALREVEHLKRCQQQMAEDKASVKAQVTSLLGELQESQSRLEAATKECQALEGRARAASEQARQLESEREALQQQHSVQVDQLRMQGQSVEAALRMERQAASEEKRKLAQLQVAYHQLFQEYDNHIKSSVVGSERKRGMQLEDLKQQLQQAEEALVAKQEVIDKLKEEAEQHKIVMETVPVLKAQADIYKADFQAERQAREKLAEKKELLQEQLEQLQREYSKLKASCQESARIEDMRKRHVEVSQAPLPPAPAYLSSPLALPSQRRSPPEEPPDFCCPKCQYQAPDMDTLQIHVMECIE
The data set can be described thus: REES of NEMO W6 on ligand binding (peptides, poly-ubiquitin). The following applies: for R (fit to Eq 1), relative / A (REES magnitude, fit to Eq 2): relative to NEMO alone, binding partners; for A (REES magnitude, fit to Eq 2): peptides 1 mM, poly-ubiquitin 1 μM. The text has this: Having established that the REES effect, specifically the use of Eq 2, can be used as a proxy for the protein free energy landscape, how the NEMO REES signal varies upon ligand binding is considered. […] The REES data for NEMO ligand bound states are shown in FIGS. 6A and 6B with the solid lines representing the fit to Eq 2. The resulting extracted values of A from Eq 2 are given in Table 1 and also as an inset bar chart in FIG. 6. For clarity, the relative change in R and A compared to NEMO alone is reported, extracted from Eq 1 and 2, respectively.
The IKKβ peptide (termed the NEMO binding domain, NBD) contains two Trp residues and so is not suitable for the present study as the signal from the peptide would confound the analysis of the single NEMO Trp. […] From Table 1 and FIG. 5A there is a significant difference in the magnitude of A depending on the ligand bound form of NEMO. […] If the ligand binding data shown in FIG. 5A is fitted to the simple linear function described by Eq 1 a different trend is found. […] Instead the major difference to is in the curvature of the data and this is captured by the use of Eq 2.
NEMO comprises a specific domain that non-covalently binds poly-ubiquitin. […] Poly-ubiquitin is found as a range of chain-lengths in the cell and evidence has previously been provided from ANS binding studies that NEMO undergoes different conformational change depending on the chain-length of non-covalently bound poly-ubiquitin [23]. The REES effect on NEMO W6 is explored in the presence of both short (4-mer; Ub4) and long (10-mer; Ub10) poly-ubiquitin chains, as shown in FIG. 6B. From the resulting values of A, given in Table 1, Ub4 binding gives a decrease in A (A=0.77±0.05), but Ub10 gives an increase (A=1.23±0.1). […] The absolute magnitude of the REES difference is small.
Full length human NEMO was expressed and purified essentially as described previously. Purified protein was dialysed extensively into a buffer comprising 50 mM Tris-Cl pH 8.0, 50 mM NaCl and 5 mM DTT. All measurements were made in this buffer unless otherwise stated. IKK-β and IκBα peptides were commercially synthesised by Genscript, having a purity of >98% and are of the sequence […] and […], respectively. The IKK-β peptide was modified such that the two native Trp residues were replaced with Phe residues. M1-linked poly-ubiquitin was purchased from Viva Bioscience. Staphylococcus aureus immune modulator protein fragment Sbi-III-IV K173A was expressed and purified essentially as described previously. Protein concentration used was between 1 and 5 μM. Peptide concentrations were 1 mM and poly-ubiquitin concentrations were 1 μM.
All fluorescence measurements were performed using a Perkin Elmer LS50B Luminescence Spectrometer (Perkin Elmer, Waltham, Mass., USA) connected to a circulating water bath for temperature regulation (±1° C.). Samples were incubated for 5 minutes at the given conditions prior to recording measurements. Measurements were performed at 10° C., unless otherwise stated. Excitation and emission slit widths were 5 nm except for pressure experiments where they were 10 nm. The larger slit width was required due to the optical setup of the pressure cell to ensure a […] signal-to-noise for the W6 emission signal. For NEMO red edge excitation scans, tryptophan emission was monitored from 315 to 550 nm. […] For red edge excitation scans, tyrosine emission was monitored from 294 to 400 nm, with the excitation wavelength set at 274 nm. […]

A short description of data set [2]: REES of NEMO W6 Trp emission: native, denatured, crowded. The data set is classed as physicochemical. The following applies: for A (REES magnitude, fit to Eq 2) / R (fit to Eq 1), relative: relative to NEMO alone; for A (REES magnitude, fit to Eq 2) / R (fit to Eq 1), relative / R0: native; for A (REES magnitude, fit to Eq 2): denatured (6M guanidine), crowded (Sbi 20 mg/ml); for R (fit to Eq 1), relative / R0: denatured, crowded; for R0: y-intercept of Eq 2 fit. On the procedure:
Typically the magnitude of the steady-state REES phenomenon is reported as the simple difference in CSM or ΔλEm^max. From FIG. 1, it is observed that a significant red shift in the emission spectra, with an increase in CSM of 17.7 nm and an increase in ΔλEm^max of 15 nm from λex 292-310 nm. Essentially the data are treated by the linear function: CSM=Rλex+CSM0 Eq 1.
Where R is the REES magnitude expressed as the change in CSM per nm of the excitation wavelength, λex.
The REES data in FIG. 2 can be best represented by a Gaussian probability distribution of the form:
Where A is the area, w is the full width at half-maximal (fwhm), m is the mid-point and R0 is the y-intercept and m=λREES^max, where λREES^max is the excitation wavelength that gives the largest change in the emission peak wavelength. The data in FIG. 2 are fit to Eq 2 and illustrate the low energy excitation at the red edge of the protein absorption spectrum. The fit of Eq 2 to the experimental data is excellent and captures the expected relationship described above.
In this case, the solvent relaxation will be very rapid and no REES effect observed, effectively because there is one discrete solvation state (fully solvated). NEMO is incubated in 6M guanidine to denature the protein and the corresponding change in the center of spectral mass (CSM) versus λex is shown in FIG. 3. The use of CSM is favoured instead of the magnitude of ΔλEm^max as this metric gives a more robust REES signal and the magnitude of may be highly error prone. However the results using ΔλEm^max are essentially the same. A decrease and red-shift in Trp emission is typically grossly correlated with denaturation of proteins. […] Note that this is not the REES effect but reflective of the solvent exposure of NEMO W6 on denaturation. […] Fitting to Eq 2 also gives a large decrease in the REES effect, A=0.37±0.4. The relative change in the REES effect is similar using either approach and this indicates strongly that a fitting approach using Eq 2 is robust.
Macromolecular crowding is a key feature of the intracellular milieu arising from the very high concentrations of other species in the cytosol. Crowding reduces the available solvent for other molecules in solution through the excluded volume effect, which effectively increase the concentration of, for example, protein and restricts the accessible conformational states through hard-core repulsions between the crowding agent and the protein. Macromolecular crowding can alter protein conformation, typically inducing folding and stabilization. Crowding therefore potentially provides a means to explore the contrasting physical effect of denaturation on the REES effect, where the protein is more folded/stabilized. A protein has been used as the crowding agent, Sbi (reported above), instead of a synthetic crowding agent since protein is much more consistent with the intracellular environment. […] Incubating NEMO with a high concentration of Sbi (20 mg/ml) gives a dramatic change to the both the absolute Trp emission and also the REES effect as shown in FIG. 3. […] Intriguingly, the REES effect is much larger in the crowded environment giving a relative increase in A of 2.24±0.51. […] This is consistent with the putative molecular model of NEMO activity that is based on allosterically regulated NEMO conformational change. Below, the potential mechanistic role of an increased number of available conformational states with respect to ligand interactions is described.
Full length human NEMO was expressed and purified essentially as described previously. Purified protein was dialysed extensively into a buffer comprising 50 mM Tris-Cl pH 8.0, 50 mM NaCl and 5 mM DTT. All measurements were made in this buffer unless otherwise stated. IKK-β and IκBα peptides were commercially synthesised by Genscript, having a purity of >98% and are of the sequence […] and […], respectively. […]

As for `N[C@@H](Cc1c[nH]c2ccccc12)C(=O)O` [free Trp, tryptophan, reference compound], the “REES effect under pressure (in words)” value in data set [1] is given as “No REES effect is observed”.
With “IκBα peptide: peptide mimic of IκBα, sequence DDRHDSGLDSMKD”, in the data set with NEMO, the “R (fit to Eq 1), relative” value was found to be 1.35±0.1 and the “A (REES magnitude, fit to Eq 2)” value was 0.85±0.04.
As for “NBD-Phe: IKK-β peptide (NEMO binding domain), two Trp replaced with Phe, sequence TALDFSFLQTE”, in the data set with NEMO, the “decrease in W6 emission on binding” value is recorded as roughly 50%; the “R (fit to Eq 1), relative” value was found to be 0.98±0.1; the “A (REES magnitude, fit to Eq 2)” value worked out at 1.33±0.3.
Consider “NEMO + Sbi: NEMO incubated with a high concentration of Sbi (20 mg/ml) as crowding agent”, for which, in data set [2] (Sbi 20 mg/ml), the “Trp emission intensity compared to NEMO in the absence of Sbi” value is given as roughly 1.4 times. In addition, in data set [2], the “A (REES magnitude, fit to Eq 2)” value is recorded as 2.24±0.51; the “R (fit to Eq 1), relative” value came to 1.07 ± 0.12; the R0 is on record as 360.5±0.45 nm.
On to “NEMOdenat: NEMO incubated in 6M guanidine to denature the protein”, for which, in data set [2], the “REES effect (in words)” value is given as “dramatically reduced REES effect”; the “A (REES magnitude, fit to Eq 2)” value was 0.37 ± 0.4; the “R (fit to Eq 1), relative” value came out at 0.21 ± 0.01; the R0 is recorded as 375.0 ± 0.5 nm. Also, in data set [2] (absolute value), the “R (fit to Eq 1), change in CSM per nm of λex” value amounted to 0.22±0.02. Moreover, in data set [2] (listed as Denatured NEMO), the “A (REES magnitude, fit to Eq 2)” value is given as 0.37±0.4; the “R (fit to Eq 1), relative” value was found to be 0.23±0.1; the R0 was determined as 375±0.5 nm. The “increase in CSM (red shift)” value in data set [2] (λex 292-310 nm) stood at 4 nm.

For the origin of these results see patent US10900903B2, “Protein structure analysis based on red-edge excitation shift (REES) spectroscopy” (UNIVERSITY OF BATH, priority 2016, dated 2021).
